The labels stand for the following.
B1: 15bp adenoviral E1a DNA (dsDNA)
DNA 1: TTCTATGCCAAACCT
DNA 2: AGGTTTGGCATAGAA
B2: 50% CpG rich DNA (dsDNA)
DNA 1: TTCGATCGCACGCCCG
DNA 2: CGGGCGTGCGATCGAA
B3: 25bp adenoviral E1a DNA (dsDNA)
DNA 1: TTCTATGCCAAACCTTGTGCCGGAG
DNA 2: CTCCGGCACAAGGTTTGGCATAGAA
B4: 16bp scrambled DNA (dsDNA)
DNA 1: ATGCATGCTGACTACG
DNA 2: CGTAGTCAGCATGCAT

This note sets out measurements from PMC3439536.

Sequence of CR2 SCR1-4-BCCP (P20023 21-273): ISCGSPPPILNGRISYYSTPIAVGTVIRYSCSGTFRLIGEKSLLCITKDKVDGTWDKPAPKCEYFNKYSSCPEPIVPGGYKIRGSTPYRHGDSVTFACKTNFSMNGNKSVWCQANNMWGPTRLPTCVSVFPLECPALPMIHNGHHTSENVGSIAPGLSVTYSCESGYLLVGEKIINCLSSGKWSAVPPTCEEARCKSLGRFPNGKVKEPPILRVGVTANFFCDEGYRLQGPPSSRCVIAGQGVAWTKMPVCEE

The series concerns the target CR2 SCR1-4-BCCP (Homo sapiens, UniProt P20023 21-273). The series is described as follows: SPR. (In general: Surface plasmon resonance follows binding to a sensor surface in real time, without labels.)
Take B1: the Kd (usually the constant that tells how readily two partners part at equilibrium) was found to be 245 nM.
With B2, the Kd was determined as 509 nM.
Regarding B3, the affinity, expressed as Kd, was 358 nM. The Kd values of the last two molecules are within 1.5-fold of each other.
As for B4, the figure is 266 nM.
